“And” between values parts separate entries of the source, which are not always exact repeats. Identical values can stand only once. Blank lines part the entries; values can stand above or below the substance they belong to.
Legend:
[1] = target: Human chorionic gonadotropin (human) (UniProt P01215); assay: bead sandwich, flow cytometry; capture A2 (MAB 602) beads, no hCG (background)
[2] = target: Human chorionic gonadotropin (human) (UniProt P01215); assay: multiplex sandwich, MAB602 capture beads; hCG 1000 ng/mL, no wash
Alpha fetoprotein [3] = target: Alpha fetoprotein (UniProt P02771); assay: anti-AFP capture beads, flow cytometry; AFP 1.0 ng/mL, anti-hCG probe
Sequence of UniProt P02771 (P02771 19-609 limits assumed): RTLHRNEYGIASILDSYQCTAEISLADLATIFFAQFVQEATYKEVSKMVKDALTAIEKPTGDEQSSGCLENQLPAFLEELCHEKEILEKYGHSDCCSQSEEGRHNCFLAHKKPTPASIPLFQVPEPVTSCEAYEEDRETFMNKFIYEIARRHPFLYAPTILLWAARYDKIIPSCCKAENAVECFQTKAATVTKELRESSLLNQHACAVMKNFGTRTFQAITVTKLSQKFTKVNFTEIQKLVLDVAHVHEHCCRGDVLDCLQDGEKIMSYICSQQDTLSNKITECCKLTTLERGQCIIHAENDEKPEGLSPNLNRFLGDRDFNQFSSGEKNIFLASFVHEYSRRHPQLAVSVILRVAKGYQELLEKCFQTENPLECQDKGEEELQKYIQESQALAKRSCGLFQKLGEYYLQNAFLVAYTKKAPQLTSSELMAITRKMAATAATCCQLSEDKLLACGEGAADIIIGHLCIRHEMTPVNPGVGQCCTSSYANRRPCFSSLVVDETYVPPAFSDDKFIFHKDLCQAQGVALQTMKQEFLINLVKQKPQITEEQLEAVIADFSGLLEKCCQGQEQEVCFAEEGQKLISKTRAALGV

[4] = target: Human chorionic gonadotropin (human) (UniProt P01215); assay: multiplex sandwich, MAB602 capture beads; hCG 2 ng/mL, washed
[5] = target: Human chorionic gonadotropin (human) (UniProt P01215); assay: sandwich, MAB602 capture beads, flow cytometry; hCG 2000 ng/mL
[6] = target: Human chorionic gonadotropin (human) (UniProt P01215); assay: bead sandwich, flow cytometry; capture A2 (MAB 602) beads, hCG 20.0 ug/mL
[7] = target: Human chorionic gonadotropin (human) (UniProt P01215); assay: sandwich, MAB602 capture beads, flow cytometry; hCG 0.0002 ng/mL
Alpha fetoprotein [8] = target: Alpha fetoprotein (UniProt P02771); assay: MAB602 capture beads, flow cytometry; AFP 1000.0 ng/mL, anti-hCG probe
[9] = target: Human chorionic gonadotropin (human) (UniProt P01215); assay: multiplex no-wash sandwich, MAB602 beads; serum Level 2, hCG 26.4 mU/mL
[10] = target: Human chorionic gonadotropin (human) (UniProt P01215); assay: bead sandwich, flow cytometry; capture A3 beads, no hCG (background)
[11] = target: Human chorionic gonadotropin (human) (UniProt P01215); assay: multiplex sandwich, MAB602 capture beads; hCG 8 ng/mL, washed
[12] = target: Human chorionic gonadotropin (human) (UniProt P01215); assay: sandwich, MAB602 capture beads, flow cytometry; hCG 20000 ng/mL
Alpha fetoprotein [13] = target: Alpha fetoprotein (UniProt P02771); assay: anti-AFP capture beads, flow cytometry; AFP 10.0 ng/mL, anti-hCG probe
Alpha fetoprotein [14] = target: Alpha fetoprotein (UniProt P02771); assay: anti-AFP capture beads, flow cytometry; AFP 100.0 ng/mL, anti-AFP probe
[15] = target: Human chorionic gonadotropin (human) (UniProt P01215); assay: anti-AFP capture beads, flow cytometry; hCG 0.1 ng/mL, anti-AFP probe
Alpha fetoprotein [16] = target: Alpha fetoprotein (UniProt P02771); assay: anti-AFP capture beads, flow cytometry; AFP 1000.0 ng/mL, anti-AFP probe
Alpha fetoprotein [17] = target: Alpha fetoprotein (UniProt P02771); assay: multiplex sandwich, S10473 capture beads; AFP 0.5 ng/mL, washed
Alpha fetoprotein [18] = target: Alpha fetoprotein (UniProt P02771); assay: multiplex sandwich, S10473 capture beads; AFP 250 ng/mL, washed
Alpha fetoprotein [19] = target: Alpha fetoprotein (UniProt P02771); assay: anti-AFP capture beads, flow cytometry; AFP 10.0 ng/mL, anti-AFP probe
Alpha fetoprotein [20] = target: Alpha fetoprotein (UniProt P02771); assay: multiplex sandwich, S10473 capture beads; AFP 62 ng/mL, no wash
Alpha fetoprotein [21] = target: Alpha fetoprotein (UniProt P02771); assay: multiplex sandwich, S10473 capture beads; AFP 0.25 ng/mL, washed
Alpha fetoprotein [22] = target: Alpha fetoprotein (UniProt P02771); assay: multiplex sandwich, S10473 capture beads; AFP 4 ng/mL, no wash
Alpha fetoprotein [23] = target: Alpha fetoprotein (UniProt P02771); assay: multiplex sandwich, S10473 capture beads; AFP 500 ng/mL, no wash
Alpha fetoprotein [24] = target: Alpha fetoprotein (UniProt P02771); assay: multiplex no-wash sandwich, S10473 beads; serum Level 3, AFP 223 U/mL
[25] = target: Neutravidin (deglycosylated avidin) (UniProt P02701); assay: multiplex, Neutravidin bead 40/40 without peptide, flow cytometry
Sequence of UniProt P02701 (P02701 25-152 limits assumed): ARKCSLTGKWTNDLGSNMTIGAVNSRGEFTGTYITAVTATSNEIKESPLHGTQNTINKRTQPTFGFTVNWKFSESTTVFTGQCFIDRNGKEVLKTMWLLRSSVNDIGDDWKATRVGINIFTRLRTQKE

[26] = target: Neutravidin (deglycosylated avidin) (UniProt P02701); assay: multiplex, Neutravidin bead 40/50 without peptide, flow cytometry
Peptide 9 …-biotin = assay: multiplex peptide beads, flow cytometry; antibody pre-mixed with soluble HYGSLPQK 10 ug/mL (competitor m18)
Peptide 7 …-biotin = assay: as above
Peptide 4 …-biotin = assay: as above
[27] = target: Peptide 5 …-biotin (human); assay: as above
Peptide 2 …-biotin = assay: as above
Peptide 8 …-biotin = assay: as above
Peptide 1 …-biotin = assay: as above
Peptide 6 …-biotin = assay: as above
Peptide 3 …-biotin = assay: as above
[28] = target: Neutravidin (deglycosylated avidin) (UniProt P02701); assay: multiplex, Neutravidin bead 60/70 without peptide, flow cytometry
[29] = target: Neutravidin (deglycosylated avidin) (UniProt P02701); assay: single-analyte, Neutravidin bead 40/40 without peptide, flow cytometry
[30] = target: Neutravidin (deglycosylated avidin) (UniProt P02701); assay: multiplex, Neutravidin bead 40/70 without peptide, flow cytometry
[31] = target: Neutravidin (deglycosylated avidin) (UniProt P02701); assay: multiplex, Neutravidin bead 70/70 without peptide, flow cytometry
[32] = target: Neutravidin (deglycosylated avidin) (UniProt P02701); assay: single-analyte, Neutravidin bead 40/60 without peptide, flow cytometry

Sequence of UniProt P01215 (P01215 25-116, chain 1 of 2, other chains not shown): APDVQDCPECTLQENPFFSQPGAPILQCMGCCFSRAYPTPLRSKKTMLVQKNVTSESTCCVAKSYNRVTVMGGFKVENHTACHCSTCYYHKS

MIF of Fm [1]: 163 | MIF of Fm [2]: 770 | MIF of Fm (Alpha fetoprotein [3]): 50 | MIF of Fm [4]: 547 | MIF of Fm [5]: 9290 and 9390 | MIF of Fm [6]: 9440 | MIF of Fm [7]: 122 and 149 | MIF of Fm (Alpha fetoprotein [8]): 53 | MIF AVG [9]: 31.7 | MIF of FL1 [9]: 32 and 34 and 29 | MIF of Fm [10]: 2980 | MIF of Fm [11]: 1960 | MIF of Fm [12]: 9340 and 9220 | MIF of Fm (Alpha fetoprotein [13]): 44
Substance: AB633 affinity purified polyclonal anti-hCG antibody, Bodipy FL-CASE labeled

MIF of Fm (Alpha fetoprotein [14]): 356 | MIF of Fm [15]: 49 | MIF of Fm (Alpha fetoprotein [16]): 348 | MIF of Fm (Alpha fetoprotein [17]): 25 | MIF of Fm (Alpha fetoprotein [18]): 1200 | MIF of Fm (Alpha fetoprotein [19]): 103 | MIF of Fm (Alpha fetoprotein [20]): 980 | MIF of Fm (Alpha fetoprotein [21]): 24 | MIF of Fm (Alpha fetoprotein [22]): 94 | MIF of Fm (Alpha fetoprotein [23]): 643 | MIF AVG (Alpha fetoprotein [24]): 1060 | MIF of FL1 (Alpha fetoprotein [24]): 1110 and 994 and 1080
Substance: M20077 affinity purified polyclonal anti-AFP antibody, Bodipy FL-CASE labeled

MIF of Fm [25]: 25 | MIF of Fm [26]: 27 | MIF of Fm (Peptide 9 …-biotin): 17 | MIF of Fm (Peptide 7 …-biotin): 11 | MIF of Fm (Peptide 4 …-biotin): 13 | MIF of Fm [27]: 53 | MIF of Fm (Peptide 2 …-biotin): 7 | MIF of Fm (Peptide 8 …-biotin): 9 | MIF of Fm (Peptide 1 …-biotin): 4 | MIF of Fm (Peptide 6 …-biotin): 15 | MIF of Fm (Peptide 3 …-biotin): 12 | MIF of Fm [28]: 36 | MIF of Fm [29]: 44 | MIF of Fm [30]: 34 | MIF of Fm [31]: 25 | MIF of Fm [32]: 54
Substance: MAB 384, Bodipy FL-X labeled (antibody)
